Biological target: Drosophila Deltex WWE2 domain (residues 26-261; Dx1A*) (Drosophila) (UniProt Q23985)
Assay: AUC

UniProt Q23985, sequence (Q23985 26-261): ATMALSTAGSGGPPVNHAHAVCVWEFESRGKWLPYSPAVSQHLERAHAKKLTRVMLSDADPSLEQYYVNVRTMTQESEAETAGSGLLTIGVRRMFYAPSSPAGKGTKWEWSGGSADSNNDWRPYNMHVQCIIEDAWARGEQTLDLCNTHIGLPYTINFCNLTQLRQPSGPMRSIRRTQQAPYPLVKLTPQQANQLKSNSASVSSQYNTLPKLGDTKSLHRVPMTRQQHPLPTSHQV

weight-averaged sedimentation coefficient (sw) of a 45 μM 1:1 mixture: 3.51e-13 s
Substance: Drosophila Notch ANK domain (Nank1-7*) R2007A (from UniProt P07207 1901-2048) (domain or fragment)

From publication PMC10338078
